Results taken from patent US20260069707A1, “COMBINATION THERAPY WITH ANTIBODY-DRUG CONJUGATES AND HYALURONIDASES” (HALOZYME, INC., priority 2024, published 2026).
Where “and” joins values, the source holds several entries; their conditions need not be identical. Identical values can stand only once.

How the values were obtained:
[1] = Enhertu analytes (TAB, TADC, free payload) in skin tissue homogenates of injection site; type: in vivo, Yucatan miniature pig (Sus scrofa domestica); conditions: SC; for TADC/TAB ratio in tissue homogenates / Concentration of free payload in tissue homogenates of injection site / Concentration of total ADC (TADC) in tissue homogenates of injection site / Concentration of total antibody (TAB) in tissue homogenates of injection site / AUC(1-7), free payload in tissue homogenates of injection site / AUC(1-7), total ADC (TADC) in tissue homogenates of injection site / AUC(1-7), total antibody (TAB) in tissue homogenates of injection site / Cmax, free payload in tissue homogenates of injection site / Cmax, total ADC (TADC) in tissue homogenates of injection site / Cmax, total antibody (TAB) in tissue homogenates of injection site: skin
Description: Porcine serum was used as surrogate matrix to prepare calibration standards and quality controls for skin sample quantitation. Untreated blank porcine skin was provided for preparation of monitoring quality controls. The porcine skin was homogenized at an approximate ratio of 0.5 mL of buffer for every 100 mg of skin. […] The monitoring controls were analyzed during the method performance evaluation. The following were selected for monitoring in the assay (Table 83).
Porcine serum was used as surrogate matrix to prepare calibration standards and quality controls for the quantitation of skin samples. […] The porcine skin was homogenized at an approximate ratio of 0.5 mL of buffer for every 100 mg of skin. […] These were analyzed during the method performance evaluation.
This sample was divided vertically into two identical pieces. One skin sample was placed into a pre-weighed cryogenic tube and its weight was recorded then stored on dry ice prior to transfer to ≤−70° C. The other skin sample was processed for potential future histological assessment into OCT freezing media and frozen on dry ice.
Animals received two SC doses on their lower abdominal region.
Two cohorts were included in the follow-on study. […] Each animal had two full thickness skin biopsies taken post-mortem using a 12 mm punch. This sample was divided vertically into two identical pieces. One skin sample was placed into a pre-weighed cryogenic tube and its weight was recorded, then stored on dry ice prior to transfer to ≤−70° C. The other skin sample was processed into OCT molds for potential future histological assessment.
Tissue lysates were prepared based upon the weight of the sample at a ratio of 0.2 g/mL homogenization buffer (Tables 81 and 82). The total protein concentration of each homogenate was determined by BCA assay. The concentration of the total ADC (TADC), total antibody (TAB) and free payload (deruxtecan) in each sample was then normalized to the protein concentration and reported in μg analyte per mg total protein.
In this study, six animals were used. […] Two cohorts were included in this study. Cohort 1 was euthanized 24 hours after treatment, while Cohort 2 was euthanized 48 hours after exposure to the two test solutions.

[2] = Calculation of drug to antibody ratio (DAR); conditions: for ADC:free Ab / free Ab:ADC: after adjustment factor
Excerpt: The Drug-to-Antibody Ratio (DAR) is a critical parameter in antibody drug conjugate development, representing the average number of drug molecules attached to each antibody molecule.

[3] = skin injection site homogenate, 168 h, individual sites, listed as ADC
[4] = 24 h post-injection, individual animal, listed as ADC
[5] = 48 h post-injection, individual animal, listed as ADC
[6] = 168 h post-injection, individual animal, listed as ADC
[7] = individual series, listed as ADC

Substance: Sacituzumab govitecan [Trodelvy]
- Free Payload Result [1, 3]: 3320 pg/mL and 2240 pg/mL and 3520 pg/mL
- TADC/TAB Ratio [1, 3]: 1.00 and 0.67 and 0.70
- Total Antibody Result [1, 3]: 4.43 µg/mL and 4.86 µg/mL and 5.80 µg/mL
- TADC/TAB ratio in tissue homogenates ([1]; 24 h post injection, individual animal, listed as ADC): 0.87 and 0.97 and 0.75
- TADC/TAB ratio in tissue homogenates ([1]; 24 h post injection, mean): 1.14
- Concentration of free payload in tissue homogenates of injection site [1, 4]: 0.026 μg/mg protein and 0.020 μg/mg protein and 0.011 μg/mg protein
- Concentration of total ADC (TADC) in tissue homogenates of injection site [1, 4]: 38.48 μg/mg protein and 22.00 μg/mg protein and 12.15 μg/mg protein
- Concentration of total antibody (TAB) in tissue homogenates of injection site [1, 4]: 44.05 μg/mg protein and 22.63 μg/mg protein and 16.28 μg/mg protein
- Concentration of free payload in tissue homogenates of injection site ([1]; 24 h post-injection, mean): 0.02 μg/mg protein
- Concentration of total ADC (TADC) in tissue homogenates of injection site ([1]; 24 h post-injection, mean): 24.21 μg/mg protein
- Concentration of total antibody (TAB) in tissue homogenates of injection site ([1]; 24 h post-injection, mean): 27.65 μg/mg protein
- TADC/TAB ratio in tissue homogenates ([1]; 48 h post injection, individual animal, listed as ADC): 0.78 and 0.86 and 0.96
- TADC/TAB ratio in tissue homogenates ([1]; 48 h post injection, mean): 1.15
- Concentration of free payload in tissue homogenates of injection site [1, 5]: 0.003 μg/mg protein and 0.005 μg/mg protein (2×)
- Concentration of total ADC (TADC) in tissue homogenates of injection site [1, 5]: 5.97 μg/mg protein and 6.98 μg/mg protein and 7.80 μg/mg protein
- Concentration of total antibody (TAB) in tissue homogenates of injection site [1, 5]: 7.70 μg/mg protein and 8.07 μg/mg protein and 8.14 μg/mg protein
- Concentration of free payload in tissue homogenates of injection site ([1]; 48 h post-injection, mean): 0.00 μg/mg protein
- Concentration of total ADC (TADC) in tissue homogenates of injection site ([1]; 48 h post-injection, mean): 6.92 μg/mg protein
- Concentration of total antibody (TAB) in tissue homogenates of injection site ([1]; 48 h post-injection, mean): 7.97 μg/mg protein
- TADC/TAB ratio in tissue homogenates ([1]; 168 h post injection, individual animal, listed as ADC): 1.01 and 0.67 and 0.70
- TADC/TAB ratio in tissue homogenates ([1]; 168 h post injection, mean): 1.27
- Concentration of free payload in tissue homogenates of injection site [1, 6]: 0.001 μg/mg protein and 0.000 μg/mg protein (2×)
- Concentration of total ADC (TADC) in tissue homogenates of injection site [1, 6]: 0.69 μg/mg protein and 0.48 μg/mg protein and 0.55 μg/mg protein
- Concentration of total antibody (TAB) in tissue homogenates of injection site [1, 6]: 0.68 μg/mg protein and 0.72 μg/mg protein and 0.79 μg/mg protein
- Concentration of free payload in tissue homogenates of injection site ([1]; 168 h post-injection, mean): 0.00 μg/mg protein
- Concentration of total ADC (TADC) in tissue homogenates of injection site ([1]; 168 h post-injection, mean): 0.57 μg/mg protein
- Concentration of total antibody (TAB) in tissue homogenates of injection site ([1]; 168 h post-injection, mean): 0.73 μg/mg protein
- AUC(1-7), free payload in tissue homogenates of injection site [1, 7]: 0.024 ug*day/mL (2×) and 0.021 ug*day/mL
- AUC(1-7), total ADC (TADC) in tissue homogenates of injection site [1, 7]: 38.87 µg·days/mL and 33.14 µg·days/mL and 30.85 µg·days/mL
- AUC(1-7), total antibody (TAB) in tissue homogenates of injection site [1, 7]: 46.85 µg·days/mL and 37.33 µg·days/mL and 34.52 µg·days/mL
- Cmax, free payload in tissue homogenates of injection site [1, 7]: 0.026 µg/mL and 0.020 µg/mL and 0.011 µg/mL
- Cmax, total ADC (TADC) in tissue homogenates of injection site [1, 7]: 38.48 µg/mL and 22.00 µg/mL and 12.15 µg/mL
- Cmax, total antibody (TAB) in tissue homogenates of injection site [1, 7]: 44.05 µg/mL and 22.63 µg/mL and 16.28 µg/mL
- AUC(1-7), free payload in tissue homogenates of injection site ([1]; mean): 0.02 µg·days/mL
- AUC(1-7), total ADC (TADC) in tissue homogenates of injection site ([1]; mean): 34.29 µg·days/mL
- AUC(1-7), total antibody (TAB) in tissue homogenates of injection site ([1]; mean): 39.57 µg·days/mL
- Cmax, free payload in tissue homogenates of injection site ([1]; mean): 0.02 µg/mL
- Cmax, total ADC (TADC) in tissue homogenates of injection site ([1]; mean): 24.21 µg/mL
- Cmax, total antibody (TAB) in tissue homogenates of injection site ([1]; mean): 27.65 µg/mL
- % DAR remaining (which may be ~ADC/ total Ab) ([2]; Day 1): 76.2%
- % DAR remaining after adjustment factor to allow for variability (line without head) ([2]; Day 1): 68.6%
- ADC:free Ab ([2]; Day 1): 218.2%
- free Ab:ADC ([2]; Day 1): 45.8%
- % DAR remaining (which may be ~ADC/ total Ab) ([2]; Day 7): 42.9%
- % DAR remaining after adjustment factor to allow for variability (line without head) ([2]; Day 7): 34.3%
- ADC:free Ab ([2]; Day 7): 52.2%
- free Ab:ADC ([2]; Day 7): 191.7%
- % DAR remaining (which may be ~ADC/ total Ab) ([2]; Day 14): 31.0%
- % DAR remaining after adjustment factor to allow for variability (line without head) ([2]; Day 14): 24.8%
- ADC:free Ab ([2]; Day 14): 32.9%
- free Ab:ADC ([2]; Day 14): 303.8%
- % DAR remaining (which may be ~ADC/ total Ab) ([2]; Day 21): 23.8%
- % DAR remaining after adjustment factor to allow for variability (line without head) ([2]; Day 21): 19.0%
- ADC:free Ab ([2]; Day 21): 23.5%
- free Ab:ADC ([2]; Day 21): 425.0%
